Like-named read-outs stand apart in the source and are kept apart here.
T1: human Nectin-4 extracellular antigen hNectin-4-His (human, UniProt Q96NY8 32-349)
T1 construct: C-terminal 8xHis tag included
T1 sequence: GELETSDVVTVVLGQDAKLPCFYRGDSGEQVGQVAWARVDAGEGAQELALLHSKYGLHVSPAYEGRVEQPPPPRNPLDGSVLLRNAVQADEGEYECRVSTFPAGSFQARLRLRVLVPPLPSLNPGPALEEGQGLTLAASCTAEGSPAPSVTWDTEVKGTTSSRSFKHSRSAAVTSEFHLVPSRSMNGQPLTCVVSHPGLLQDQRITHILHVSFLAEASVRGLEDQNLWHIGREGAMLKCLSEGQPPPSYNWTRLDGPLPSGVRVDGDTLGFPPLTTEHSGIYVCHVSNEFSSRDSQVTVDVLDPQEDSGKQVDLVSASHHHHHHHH

B1: antibody 1G8-1E10 (antibody, human IgG1, kappa, V domains shown)
VH: EVQLVESGGGLVQPGGSLRLSCAASGDSFSTYAMSWVRQAPGKGLEWVSRISGSGDGKDYADSVKGRFTISRDNSKNTLYLQMNSLRAEDTAVYYCARQTEDRSYGYDLDYWGQGTLVTVSS
VL: DIQMTQSPSSLSASVGDRVTITCRASQGISSYLAWYQQKPGKAPKLLIYAASSLQSGVPSRFSGSGSGTDFTLTISSLQPEDFATYYCQQHYTTPPTFGQGTKVEIKR
B2: antibody 1G8-2B3 (antibody, human IgG1, kappa, V domains shown)
VH: EVQLVESGGGLVQPGGSLRLSCAASGYNFTTSAMSWVRQAPGKGLEWVSRIYQDSSTTDYADSVKGRFTISRDNSKNTLYLQMNSLRAEDTAVYYCARQTEDRSYGYDLDYWGQGTLVTVSS
VL: DIQMTQSPSSLSASVGDRVTITCRASQGISSYLAWYQQKPGKAPKLLIYAASSLQSGVPSRFSGSGSGTDFTLTISSLQPEDFATYYCQQHYTTPPTFGQGTKVEIKR
B3: antibody 1F3-1H3 (antibody, human IgG1, kappa, V domains shown)
VH: EVQLVESGGGLVQPGGSLRLSCAASGFNFYNYGMSWVRQAPGKGLEWVSGIKPHSDVAHYADSVKGRFTISRDNSKNTLYLQMNSLRAEDTAVYYCARAELLAFDVYTASDYWGQGTLVTVSS
VL: DIQMTQSPSSLSASVGDRVTITCRASQGISSYLAWYQQKPGKAPKLLIYAASSLQSGVPSRFSGSGSGTDFTLTISSLQPEDFATYYCQQHYTTPPTFGQGTKVEIKR
B4: antibody 1F3-1G7 (antibody, human IgG1, kappa, V domains shown)
VH: EVQLVESGGGLVQPGGSLRLSCAASGDIFSNYSMSWVRQAPGKGLEWVSGIYPSGDSRRYADSVKGRFTISRDNSKNTLYLQMNSLRAEDTAVYYCARAELLAFDVYTASDYWGQGTLVTVSS
VL: DIQMTQSPSSLSASVGDRVTITCRASQGISSYLAWYQQKPGKAPKLLIYAASSLQSGVPSRFSGSGSGTDFTLTISSLQPEDFATYYCQQHYTTPPTFGQGTKVEIKR
B5: antibody 1F3-2B9 (antibody, human IgG1, kappa, V domains shown)
VH: EVQLVESGGGLVQPGGSLRLSCAASGFNFDSYAMSWVRQAPGKGLEWVSGIKPHTDDIYYADSVKGRFTISRDNSKNTLYLQMNSLRAEDTAVYYCARAELLAFDVYTASDYWGQGTLVTVSS
VL: DIQMTQSPSSLSASVGDRVTITCRASQGISSYLAWYQQKPGKAPKLLIYAASSLQSGVPSRFSGSGSGTDFTLTISSLQPEDFATYYCQQHYTTPPTFGQGTKVEIKR
B6: antibody 1F3-1F8 (antibody, human IgG1, kappa, V domains shown)
VH: EVQLVESGGGLVQPGGSLRLSCAASGFNFGNYGMSWVRQAPGKGLEWVSRISGDGSNINYADSVKGRFTISRDNSKNTLYLQMNSLRAEDTAVYYCARAELLAFDVYTASDYWGQGTLVTVSS
VL: DIQMTQSPSSLSASVGDRVTITCRASQGISSYLAWYQQKPGKAPKLLIYAASSLQSGVPSRFSGSGSGTDFTLTISSLQPEDFATYYCQQHYTTPPTFGQGTKVEIKR
B7: antibody 1G8-1G3 (antibody, human IgG1, kappa, V domains shown)
VH: EVQLVESGGGLVQPGGSLRLSCAASGFNFGTYAMSWVRQAPGKGLEWVSRISGISAGTNYADSVKGRFTISRDNSKNTLYLQMNSLRAEDTAVYYCARQTEDRSYGYDLDYWGQGTLVTVSS
VL: DIQMTQSPSSLSASVGDRVTITCRASQGISSYLAWYQQKPGKAPKLLIYAASSLQSGVPSRFSGSGSGTDFTLTISSLQPEDFATYYCQQHYTTPPTFGQGTKVEIKR
B8: antibody 10F4-1C3 (antibody, human IgG1, kappa, V domains shown)
VH: EVQLVESGGGLVQPGGSLRLSCAASGYSFSDYWMSWVRQAPGKGLEWVSSIKQTGGVKHYADSVKGRFTISRDNSKNTLYLQMNSLRAEDTAVYYCAREYSDVVDYVSVRTPLDYWGQGTLVTVSS
VL: DIQMTQSPSSLSASVGDRVTITCRASQGISSYLAWYQQKPGKAPKLLIYAASSLQSGVPSRFSGSGSGTDFTLTISSLQPEDFATYYCQQHYTTPPTFGQGTKVEIKR
B9: antibody 1G8-2C6 (antibody, human IgG1, kappa, V domains shown)
VH: EVQLVESGGGLVQPGGSLRLSCAASGDNFSSYAMSWVRQAPGKGLEWVSRIYGSDSTPDYADSVKGRFTISRDNSKNTLYLQMNSLRAEDTAVYYCARQTEDRSYGYDLDYWGQGTLVTVSS
VL: DIQMTQSPSSLSASVGDRVTITCRASQGISSYLAWYQQKPGKAPKLLIYAASSLQSGVPSRFSGSGSGTDFTLTISSLQPEDFATYYCQQHYTTPPTFGQGTKVEIKR
B10: antibody 10F4-1C10 (antibody, human IgG1, kappa, V domains shown)
VH: EVQLVESGGGLVQPGGSLRLSCAASGYNFGSYDMSWVRQAPGKGLEWVSGIKTYGGNTHYADSVKGRFTISRDNSKNTLYLQMNSLRAEDTAVYYCAREYSDVVDYVSVRTPLDYWGQGTLVTVSS
VL: DIQMTQSPSSLSASVGDRVTITCRASQGISSYLAWYQQKPGKAPKLLIYAASSLQSGVPSRFSGSGSGTDFTLTISSLQPEDFATYYCQQHYTTPPTFGQGTKVEIKR
B11: antibody 1G8-2F2 (antibody, human IgG1, kappa, V domains shown)
VH: EVQLVESGGGLVQPGGSLRLSCAASGDIFGSYAMSWVRQAPGKGLEWVSRISSHGASRDYADSVKGRFTISRDNSKNTLYLQMNSLRAEDTAVYYCARQTEDRSYGYDLDYWGQGTLVTVSS
VL: DIQMTQSPSSLSASVGDRVTITCRASQGISSYLAWYQQKPGKAPKLLIYAASSLQSGVPSRFSGSGSGTDFTLTISSLQPEDFATYYCQQHYTTPPTFGQGTKVEIKR
B12: antibody 1G8-2G8 (antibody, human IgG1, kappa, V domains shown)
VH: EVQLVESGGGLVQPGGSLRLSCAASGFNFTNYAMSWVRQAPGKGLEWVSRISTYGDTTHYADSVKGRFTISRDNSKNTLYLQMNSLRAEDTAVYYCARQTEDRSYGYDLDYWGQGTLVTVSS
VL: DIQMTQSPSSLSASVGDRVTITCRASQGISSYLAWYQQKPGKAPKLLIYAASSLQSGVPSRFSGSGSGTDFTLTISSLQPEDFATYYCQQHYTTPPTFGQGTKVEIKR
B13: antibody 10F4-1G7 (antibody, human IgG1, kappa, V domains shown)
VH: EVQLVESGGGLVQPGGSLRLSCAASGYNFGDYDMSWVRQAPGKGLEWVSSIIGHGDTKFYADSVKGRFTISRDNSKNTLYLQMNSLRAEDTAVYYCAREYSDVVDYVSVRTPLDYWGQGTLVTVSS
VL: DIQMTQSPSSLSASVGDRVTITCRASQGISSYLAWYQQKPGKAPKLLIYAASSLQSGVPSRFSGSGSGTDFTLTISSLQPEDFATYYCQQHYTTPPTFGQGTKVEIKR
B14: antibody 10F4-1E1 (antibody, human IgG1, kappa, V domains shown)
VH: EVQLVESGGGLVQPGGSLRLSCAASGDIFGNYWMSWVRQAPGKGLEWVSSIDASSGNRFYADSVKGRFTISRDNSKNTLYLQMNSLRAEDTAVYYCAREYSDVVDYVSVRTPLDYWGQGTLVTVSS
VL: DIQMTQSPSSLSASVGDRVTITCRASQGISSYLAWYQQKPGKAPKLLIYAASSLQSGVPSRFSGSGSGTDFTLTISSLQPEDFATYYCQQHYTTPPTFGQGTKVEIKR
B15: antibody 1F3-1A9 (antibody, human IgG1, kappa, V domains shown)
VH: EVQLVESGGGLVQPGGSLRLSCAASGYSFDNYAMSWVRQAPGKGLEWVSRISPTGGYASYADSVKGRFTISRDNSKNTLYLQMNSLRAEDTAVYYCARAELLAFDVYTASDYWGQGTLVTVSS
VL: DIQMTQSPSSLSASVGDRVTITCRASQGISSYLAWYQQKPGKAPKLLIYAASSLQSGVPSRFSGSGSGTDFTLTISSLQPEDFATYYCQQHYTTPPTFGQGTKVEIKR
B16: antibody 10F4-1F1 (antibody, human IgG1, kappa, V domains shown)
VH: EVQLVESGGGLVQPGGSLRLSCAASGFSFSNYWMSWVRQAPGKGLEWVSAISPGDGTIFYADSVKGRFTISRDNSKNTLYLQMNSLRAEDTAVYYCAREYSDVVDYVSVRTPLDYWGQGTLVTVSS
VL: DIQMTQSPSSLSASVGDRVTITCRASQGISSYLAWYQQKPGKAPKLLIYAASSLQSGVPSRFSGSGSGTDFTLTISSLQPEDFATYYCQQHYTTPPTFGQGTKVEIKR
B17: antibody 10F4-1F8 (antibody, human IgG1, kappa, V domains shown)
VH: EVQLVESGGGLVQPGGSLRLSCAASGYTFTDYDMSWVRQAPGKGLEWVSSIITDGGGAFYADSVKGRFTISRDNSKNTLYLQMNSLRAEDTAVYYCAREYSDVVDYVSVRTPLDYWGQGTLVTVSS
VL: DIQMTQSPSSLSASVGDRVTITCRASQGISSYLAWYQQKPGKAPKLLIYAASSLQSGVPSRFSGSGSGTDFTLTISSLQPEDFATYYCQQHYTTPPTFGQGTKVEIKR

Assays:
[1] = molecular target: T1, human Nectin-4 extracellular antigen …; assay: ELISA, coated hNectin-4-His
Source text: (§1) The binding activity of the antibodies was detected by ELISA.

[2] = molecular target: T1, human Nectin-4 extracellular antigen …; assay: SPR, antibody on Protein A chip, 1:1 fit
Source text: In this study, the affinity of the antibodies for the human Nectin-4 extracellular antigen was detected by surface plasmon resonance (SPR) technique (BIAcore: GE Healthcare, T200).

[3] = molecular target: T1, human Nectin-4 extracellular antigen …; assay: ELISA, coated hNectin-4-His; remark: listed apart in the source
Source text: as §1

Binder	EC50 [1] [ng/mL]	Kd [2] [nM]	koff [2] [s⁻¹]	kon [2] [M⁻¹ s⁻¹]	EC50 [3] [ng/mL]
B1	6	1.31	0.00087	665000	–
B2	5	1.98	0.00147	742000	–
B3	8	0.62	0.00105	1.69e+06	–
B4	8	0.743	0.000596	802000	–
B5	9	0.552	0.00101	1.82e+06	–
B6	8	0.564	0.000966	1.71e+06	–
B7	4	3	0.00141	471000	–
B8	–	0.589	0.000218	370000	53
B9	5	1.87	0.00137	734000	–
B10	–	0.435	0.000116	265000	58
B11	12	2.12	0.00166	784000	–
B12	6	1.87	0.00142	758000	–
B13	–	0.374	0.000145	389000	68
B14	–	–	–	–	67
B15	7	0.641	0.000994	1.55e+06	–
B16	–	–	–	–	57
B17	–	0.558	0.000237	424000	54

Source: patent publication US20260144882A1 (BIO THERA SOLUTIONS, published 2026)
